Measured values taken from patent US20150132310A1.

Tests used:
[1] = molecular target: human CD11b (Integrin alpha-M), full length (human) (UniProt P11215); experiment: cell-based or functional assay
[2] = molecular target: human recombinant CD11b I domain (N-terminal 6x-His, C-terminal 6x-glycine linker and 3x-Flag) (human) (UniProt P11215); experiment: SPR
cDNA FLJ55635 (human) = experiment: His-LukAB pull-down from solubilised primary human PMNs on nickel resin, mass spectrometry
[3] = molecular target: ATP synthase subunit beta (human) (UniProt P06576); experiment: as above
[4] = molecular target: Putative uncharacterized protein LCN2 (human) (UniProt P80188); experiment: as above
Sequence of UniProt P80188 (P80188 21-198 limits assumed): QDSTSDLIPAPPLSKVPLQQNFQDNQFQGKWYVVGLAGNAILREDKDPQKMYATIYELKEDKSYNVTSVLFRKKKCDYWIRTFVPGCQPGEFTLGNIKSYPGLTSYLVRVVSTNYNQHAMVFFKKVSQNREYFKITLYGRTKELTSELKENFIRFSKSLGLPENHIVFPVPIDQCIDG

[5] = molecular target: human CD11b (Integrin alpha-M), full length (human) (UniProt P11215); experiment: as above
Alpha-actinin-1 (human) = Alpha-actinin-1 (human) (UniProt P12814); experiment: as above
SFPQ protein (human) = experiment: as above
Sequence of SFPQ protein (human) (P23246 whole entry): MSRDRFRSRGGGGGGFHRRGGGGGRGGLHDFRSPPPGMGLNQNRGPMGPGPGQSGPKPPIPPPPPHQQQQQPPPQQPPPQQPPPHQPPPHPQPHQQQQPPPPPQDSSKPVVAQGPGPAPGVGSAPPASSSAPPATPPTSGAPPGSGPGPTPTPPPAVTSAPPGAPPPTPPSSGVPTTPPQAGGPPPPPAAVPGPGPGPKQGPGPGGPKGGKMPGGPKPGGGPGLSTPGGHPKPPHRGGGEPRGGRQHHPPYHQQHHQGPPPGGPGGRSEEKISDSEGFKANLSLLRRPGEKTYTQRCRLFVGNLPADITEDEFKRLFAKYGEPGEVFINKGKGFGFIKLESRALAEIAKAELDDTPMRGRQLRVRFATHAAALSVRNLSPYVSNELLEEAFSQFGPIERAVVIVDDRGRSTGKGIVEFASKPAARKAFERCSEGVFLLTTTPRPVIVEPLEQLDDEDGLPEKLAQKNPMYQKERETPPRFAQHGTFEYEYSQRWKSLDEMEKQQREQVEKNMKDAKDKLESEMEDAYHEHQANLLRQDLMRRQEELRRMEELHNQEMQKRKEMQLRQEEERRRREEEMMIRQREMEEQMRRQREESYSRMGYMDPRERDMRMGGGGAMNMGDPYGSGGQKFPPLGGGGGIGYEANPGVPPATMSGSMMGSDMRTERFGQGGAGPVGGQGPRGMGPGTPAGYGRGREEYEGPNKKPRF

[6] = molecular target: Adipocyte plasma membrane-associated protein (human) (UniProt Q9HDC9); experiment: as above
Sequence of UniProt Q9HDC9 (Q9HDC9 2-416 limits assumed): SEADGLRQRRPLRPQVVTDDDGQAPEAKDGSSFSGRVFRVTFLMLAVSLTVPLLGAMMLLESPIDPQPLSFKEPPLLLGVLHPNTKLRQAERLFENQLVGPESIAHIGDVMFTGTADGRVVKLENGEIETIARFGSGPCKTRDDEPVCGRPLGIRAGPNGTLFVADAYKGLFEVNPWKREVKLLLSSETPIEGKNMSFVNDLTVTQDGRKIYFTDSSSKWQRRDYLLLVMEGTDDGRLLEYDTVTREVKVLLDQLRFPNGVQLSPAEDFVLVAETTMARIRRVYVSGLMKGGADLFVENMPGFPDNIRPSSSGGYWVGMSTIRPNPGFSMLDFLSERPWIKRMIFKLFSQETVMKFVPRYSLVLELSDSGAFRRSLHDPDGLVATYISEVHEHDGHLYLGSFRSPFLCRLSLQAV

[7] = molecular target: 6-phosphogluconate dehydrogenase (human) (UniProt P52209); experiment: as above
Sequence of UniProt P52209 (P52209 whole entry): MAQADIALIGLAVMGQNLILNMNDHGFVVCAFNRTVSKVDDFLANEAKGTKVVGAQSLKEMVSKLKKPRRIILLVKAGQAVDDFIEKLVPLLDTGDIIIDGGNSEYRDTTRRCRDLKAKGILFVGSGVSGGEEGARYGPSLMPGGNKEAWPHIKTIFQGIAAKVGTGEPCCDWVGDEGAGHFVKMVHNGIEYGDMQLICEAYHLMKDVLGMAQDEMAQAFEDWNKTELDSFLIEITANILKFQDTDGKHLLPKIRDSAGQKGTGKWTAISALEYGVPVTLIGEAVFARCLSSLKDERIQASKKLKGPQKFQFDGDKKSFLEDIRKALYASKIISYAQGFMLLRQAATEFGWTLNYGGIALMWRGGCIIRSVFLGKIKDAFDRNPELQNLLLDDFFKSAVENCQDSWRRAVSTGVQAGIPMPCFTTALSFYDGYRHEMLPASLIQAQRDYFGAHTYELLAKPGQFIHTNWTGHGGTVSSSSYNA

Catalase (human) = Catalase (human) (UniProt P04040); experiment: as above
Sequence of UniProt P04040 (P04040 2-527 limits assumed): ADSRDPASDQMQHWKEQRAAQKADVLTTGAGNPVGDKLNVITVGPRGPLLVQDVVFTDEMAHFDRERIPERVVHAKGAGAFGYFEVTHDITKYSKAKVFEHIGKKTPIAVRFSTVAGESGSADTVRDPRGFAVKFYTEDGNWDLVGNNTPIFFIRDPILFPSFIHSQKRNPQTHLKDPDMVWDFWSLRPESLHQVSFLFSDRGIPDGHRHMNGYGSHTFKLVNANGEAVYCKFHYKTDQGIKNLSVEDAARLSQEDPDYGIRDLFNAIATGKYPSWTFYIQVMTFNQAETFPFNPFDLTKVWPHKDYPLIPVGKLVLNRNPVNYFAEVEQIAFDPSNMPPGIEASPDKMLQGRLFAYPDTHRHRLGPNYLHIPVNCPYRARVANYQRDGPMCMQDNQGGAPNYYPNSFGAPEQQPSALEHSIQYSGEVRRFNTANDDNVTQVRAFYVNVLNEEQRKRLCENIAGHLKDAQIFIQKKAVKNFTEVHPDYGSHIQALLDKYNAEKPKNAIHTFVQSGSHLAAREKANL

cDNA FLJ55493 (human) = cDNA FLJ55493 (human) (UniProt B4DMF5); experiment: as above
[8] = molecular target: Mitogen-activated protein kinase 1 (human) (UniProt P28482); experiment: as above
Actin (human) = Actin (human) (UniProt P63261); experiment: as above
Plastin-2 (human) = Plastin-2 (human) (UniProt P13796); experiment: as above
CD63 antigen (human) = CD63 antigen (human) (UniProt P08962); experiment: as above
Sequence of UniProt P08962 (P08962 2-238 limits assumed): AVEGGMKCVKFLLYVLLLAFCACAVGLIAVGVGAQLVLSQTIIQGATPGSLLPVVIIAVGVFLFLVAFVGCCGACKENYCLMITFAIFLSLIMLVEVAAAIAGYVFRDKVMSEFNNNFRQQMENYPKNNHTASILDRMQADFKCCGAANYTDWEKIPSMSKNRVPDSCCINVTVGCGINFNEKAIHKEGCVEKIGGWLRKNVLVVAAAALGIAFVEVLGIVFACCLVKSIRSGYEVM

Serum albumin (human) = Serum albumin (human) (UniProt P02768); experiment: as above
[9] = molecular target: Glucose-6-phosphate isomerase (human) (UniProt P06744); experiment: as above
Alpha-enolase (human) = Alpha-enolase (human) (UniProt P06733); experiment: as above
[10] = molecular target: Adenylyl cyclase-associated protein (human) (UniProt B2RDY9); experiment: as above
cDNA FLJ53963 (human) = experiment: as above
cDNA FLJ75120 (human) = cDNA FLJ75120 (human) (UniProt Q99536); experiment: as above
[11] = molecular target: Pyruvate kinase isozymes M1/M2 (human) (UniProt P14618); experiment: as above
[12] = molecular target: Glyceraldehyde-3-phosphate dehydrogenase (human) (UniProt P04406); experiment: as above
[13] = molecular target: Peptidoglycan recognition protein (human) (UniProt O75594); experiment: as above
cDNA FLJ78440 (human) = cDNA FLJ78440 (human) (UniProt A8K494); experiment: as above
Myosin-9 (human) = Myosin-9 (human) (UniProt P35579); experiment: as above
Cntm_P13645 = Cntm_P13645 (UniProt P13645); experiment: as above
Malic enzyme (human) = Malic enzyme (human) (UniProt P23368); experiment: as above
[14] = molecular target: Beta-adrenergic receptor kinase 1 (human) (UniProt P25098); experiment: as above
[15] = molecular target: Heat shock 70kDa protein 1A (human) (UniProt A8K5I0); experiment: as above
[16] = molecular target: Guanine nucleotide-binding protein G(i) (human) (UniProt P04899); experiment: as above
Sequence of UniProt P04899 (P04899 2-355 limits assumed): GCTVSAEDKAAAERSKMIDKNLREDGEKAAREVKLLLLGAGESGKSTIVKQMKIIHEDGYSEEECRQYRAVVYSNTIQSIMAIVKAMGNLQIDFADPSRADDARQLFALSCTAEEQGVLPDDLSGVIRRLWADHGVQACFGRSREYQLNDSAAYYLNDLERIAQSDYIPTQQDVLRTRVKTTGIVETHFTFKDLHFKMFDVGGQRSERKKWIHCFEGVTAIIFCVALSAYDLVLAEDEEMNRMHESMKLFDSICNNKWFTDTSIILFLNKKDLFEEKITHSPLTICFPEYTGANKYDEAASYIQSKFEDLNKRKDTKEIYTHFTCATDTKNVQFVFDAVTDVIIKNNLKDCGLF

[17] = molecular target: Protein tyrosine phosphatase (human) (UniProt P08575); experiment: as above
[18] = molecular target: Hemoglobin subunit alpha (human) (UniProt P69905); experiment: as above
Myeloperoxidase (human) = Myeloperoxidase (human) (UniProt P05164); experiment: as above
Transketolase (human) = Transketolase (human) (UniProt P29401); experiment: as above
Protein S100-A8 (human) = Protein S100-A8 (human) (UniProt P05109); experiment: as above
Sequence of UniProt P05109 (P05109 whole entry): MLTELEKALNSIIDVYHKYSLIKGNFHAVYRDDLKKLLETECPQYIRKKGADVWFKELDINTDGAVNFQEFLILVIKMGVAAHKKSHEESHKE

[19] = molecular target: Hemoglobin subunit beta (human) (UniProt P68871); experiment: as above
Sequence of UniProt P68871 (P68871 2-147 limits assumed): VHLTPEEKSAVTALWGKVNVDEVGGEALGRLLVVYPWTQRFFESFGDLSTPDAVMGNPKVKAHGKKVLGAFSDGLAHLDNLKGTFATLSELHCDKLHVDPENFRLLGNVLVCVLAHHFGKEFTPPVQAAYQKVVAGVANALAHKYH

cDNA, FLJ92148 (human) = cDNA, FLJ92148 (human) (UniProt B2R4M6); experiment: as above
cDNA FLJ76817 (human) = experiment: as above
Sequence of cDNA FLJ76817 (human) (Q15233 whole entry): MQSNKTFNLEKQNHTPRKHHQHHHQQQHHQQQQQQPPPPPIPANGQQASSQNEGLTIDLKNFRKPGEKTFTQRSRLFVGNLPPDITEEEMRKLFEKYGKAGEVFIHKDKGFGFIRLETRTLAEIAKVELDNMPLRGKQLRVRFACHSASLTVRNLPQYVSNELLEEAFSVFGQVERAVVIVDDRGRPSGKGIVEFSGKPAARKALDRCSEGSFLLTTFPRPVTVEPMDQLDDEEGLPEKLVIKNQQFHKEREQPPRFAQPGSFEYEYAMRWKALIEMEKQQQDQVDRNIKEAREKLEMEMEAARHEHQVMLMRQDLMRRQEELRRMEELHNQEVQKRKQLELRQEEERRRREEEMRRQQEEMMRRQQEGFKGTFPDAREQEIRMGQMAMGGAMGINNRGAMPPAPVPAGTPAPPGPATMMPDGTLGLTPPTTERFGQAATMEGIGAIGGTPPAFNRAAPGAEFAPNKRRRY

[20] = molecular target: E3 ubiquitin-protein ligase CBL (human) (UniProt P22681); experiment: as above
[21] = molecular target: human CD18 (Integrin beta 2) (human); experiment: as above
[22] = molecular target: Bactericidal permeability-increasing protein (human) (UniProt P17213); experiment: as above
Coronin-1A (human) = Coronin-1A (human) (UniProt P31146); experiment: as above
Sequence of UniProt P31146 (P31146 2-461 limits assumed): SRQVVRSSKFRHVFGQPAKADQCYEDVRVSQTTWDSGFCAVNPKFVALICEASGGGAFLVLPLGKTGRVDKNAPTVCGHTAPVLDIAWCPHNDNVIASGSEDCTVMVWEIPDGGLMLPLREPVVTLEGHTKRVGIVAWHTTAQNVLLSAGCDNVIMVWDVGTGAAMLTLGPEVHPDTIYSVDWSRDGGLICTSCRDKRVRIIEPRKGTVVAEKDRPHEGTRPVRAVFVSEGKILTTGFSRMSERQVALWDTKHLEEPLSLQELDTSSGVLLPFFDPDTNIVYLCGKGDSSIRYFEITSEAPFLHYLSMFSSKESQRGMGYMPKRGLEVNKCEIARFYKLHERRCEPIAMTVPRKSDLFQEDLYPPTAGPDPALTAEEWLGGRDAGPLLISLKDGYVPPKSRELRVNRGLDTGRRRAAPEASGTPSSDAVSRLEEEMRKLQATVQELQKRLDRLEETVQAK

[23] = molecular target: Endoplasmic reticulum resident protein ERp44 (human) (UniProt Q9BS26); experiment: as above
[24] = molecular target: human recombinant Mac-1 (CD11b/CD18, integrin alphaM/beta2), R&D Systems (human) (UniProt P05107); experiment: SPR (Biacore T100), Mac-1 immobilised on CM5 chip, LukAB as analyte, multi cycle kinetics
[25] = molecular target: human recombinant CD11b I domain (N-terminal 6x-His, C-terminal 6x-glycine linker and 3x-Flag) (human) (UniProt P11215); experiment: SPR (Biacore T100), human I domain immobilised on CM5 chip, LukAB as analyte, multi cycle kinetics

Sequence of cDNA FLJ55635 (human) (O43143 whole entry): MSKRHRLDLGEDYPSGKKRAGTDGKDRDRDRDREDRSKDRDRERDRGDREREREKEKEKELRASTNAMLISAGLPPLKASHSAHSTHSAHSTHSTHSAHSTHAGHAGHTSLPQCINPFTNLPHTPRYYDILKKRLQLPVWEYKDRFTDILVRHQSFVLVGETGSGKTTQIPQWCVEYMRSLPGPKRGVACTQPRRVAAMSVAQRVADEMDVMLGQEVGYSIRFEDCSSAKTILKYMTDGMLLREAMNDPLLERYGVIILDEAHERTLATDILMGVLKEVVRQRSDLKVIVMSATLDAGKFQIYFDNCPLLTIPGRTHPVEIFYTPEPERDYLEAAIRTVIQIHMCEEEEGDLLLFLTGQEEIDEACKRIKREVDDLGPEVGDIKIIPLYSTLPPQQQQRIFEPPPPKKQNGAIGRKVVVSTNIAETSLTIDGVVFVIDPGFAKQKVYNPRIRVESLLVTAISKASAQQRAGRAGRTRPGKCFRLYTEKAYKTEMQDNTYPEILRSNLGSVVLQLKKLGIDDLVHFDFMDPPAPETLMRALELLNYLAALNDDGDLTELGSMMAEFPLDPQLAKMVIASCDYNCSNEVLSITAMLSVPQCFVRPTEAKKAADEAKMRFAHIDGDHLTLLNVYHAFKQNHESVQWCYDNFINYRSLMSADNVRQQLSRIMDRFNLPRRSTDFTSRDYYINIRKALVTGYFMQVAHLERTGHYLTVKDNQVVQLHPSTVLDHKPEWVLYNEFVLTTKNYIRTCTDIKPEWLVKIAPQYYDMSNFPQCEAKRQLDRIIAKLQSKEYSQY

Question: Which results are given for “His-tagged LukAB (leukotoxin AB, purified recombinant from S. aureus Newman)”?
Answer: percent depletion of CD11b+ HEK293T cells (CD11b transfected), 40 µg/ml LukAB, 2 hours, flow cytometry [1]: 80 to 90%; difference in Kd against the LukAB-murine CD11b I-domain interaction [2]: 8 to 9 logs; # of peptides (cDNA FLJ55635 (human)): 7 peptides; # of peptides [3]: 5 peptides; # of peptides [4]: 5 peptides; # of peptides [5]: 17 peptides; # of peptides (Alpha-actinin-1 (human)): 3 peptides; # of peptides (SFPQ protein (human)): 4 peptides; # of peptides [6]: 5 peptides; # of peptides [7]: 3 peptides; # of peptides (Catalase (human)): 3 peptides; # of peptides (cDNA FLJ55493 (human)): 5 peptides; # of peptides [8]: 5 peptides; # of peptides (Actin (human)): 7 peptides; # of peptides (Plastin-2 (human)): 8 peptides; # of peptides (CD63 antigen (human)): 3 peptides; # of peptides (Serum albumin (human)): 13 peptides; # of peptides [9]: 3 peptides; # of peptides (Alpha-enolase (human)): 3 peptides; # of peptides [10]: 4 peptides; # of peptides (cDNA FLJ53963 (human)): 3 peptides; # of peptides (cDNA FLJ75120 (human)): 5 peptides; # of peptides [11]: 9 peptides; # of peptides [12]: 6 peptides; # of peptides [13]: 4 peptides; # of peptides (cDNA FLJ78440 (human)): 8 peptides; # of peptides (Myosin-9 (human)): 3 peptides; # of peptides (Cntm_P13645): 10 peptides; # of peptides (Malic enzyme (human)): 5 peptides; # of peptides [14]: 3 peptides; # of peptides [15]: 5 peptides; # of peptides [16]: 3 peptides; # of peptides [17]: 3 peptides; # of peptides [18]: 4 peptides; # of peptides (Myeloperoxidase (human)): 7 peptides; # of peptides (Transketolase (human)): 4 peptides; # of peptides (Protein S100-A8 (human)): 5 peptides; # of peptides [19]: 5 peptides; # of peptides (cDNA, FLJ92148 (human)): 4 peptides; # of peptides (cDNA FLJ76817 (human)): 3 peptides; # of peptides [20]: 3 peptides; # of peptides [21]: 12 peptides; # of peptides [22]: 6 peptides; # of peptides (Coronin-1A (human)): 6 peptides; # of peptides [23]: 4 peptides; Kd [24]: 38.4 nM; Kd [25]: 1.92 nM
